# From article PMC3169403 (Acta Crystallographica Section F: Structural Biology and …, 2011)
# Biological target: glutaryl-CoA dehydrogenase from Burkholderia pseudomallei (Burkholderia pseudomallei strain 1710b)
# Assay: crystal structure
substance,measurement,value
glutaryl-CoA dehydrogenase from Burkholderia pseudomallei (enzyme),stoichiometry N,4
